Reference: US7858084B2, “Methods of treatment with renalase (monoamine oxidase C)” (Yale University, priority 2005, dated 2010)
Entries after “also recorded” stand apart in the source; their conditions may differ.

B1: renalase: recombinant renalase protein made in E. coli, refolded before administration; secreted FAD-containing monoamine oxidase of the kidney (protein)
chain: ALLRKEITAPLYLALWDKAGDIGGRMTTANSPHNPRCTADLGAQYITCTPHYAKKHQNFYEELLAHGILEPLTSPIKGMEVKEGESNFVAPHGVSSIIKYYLKESGAEVFLRQCVTQINLRDNKWEVSEDTGSTQQFDLVILTMPAPQILGLQGDIVNLISERQRQQLASVSYSSRYALGLFYEAGMKIDVPWAGQYITSNPCIRFISIDSKKRNTESSECGPLLVVHTTVPFGVTHLEHSEEDVQELITQQLETILPGLPPPVATKCWKWRYSQVTNSAANSPGQMTLHLNPFLIYI
B2: protein isolated from human blood: native renalase isolated from human blood under basal conditions (protein, UniProt Q5VYX0 18-342, looked up)
Renalase: ALLRRQTSGPLYLAVWDKAEDSGGRMTTACSPHNPQCTADLGAQYITCTPHYAKKHQRFYDELLAYGVLRPLSSPIEGMVMKEGDCNFVAPQGISSIIKHYLKESGAEVYFRHRVTQINLRDDKWEVSKQTGSPEQFDLIVLTMPVPEILQLQGDITTLISECQRQQLEAVSYSSRYALGLFYEAGTKIDVPWAGQYITSNPCIRFVSIDNKKRNIESSEIGPSLVIHTTVPFGVTYLEHSIEDVQELVFQQLENILPGLPQPIATKCQKWRHSQVTNAAANCPGQMTLHHKPFLACGGDGFTQSNFDGCITSALCVLEALKNYI
B3: renalase isolated from human urine: native renalase isolated from human urine (protein, UniProt Q5VYX0 18-342, looked up)
Renalase: B2 Renalase

Tests used:
[1] = tested on: isolated perfused mouse heart; test: isolated perfused mouse heart model of ischemia-reperfusion
Source text: Since renalase can metabolize catecholamines, we tested whether it could protect against ischemic myocardial damage.

[2] = blood pressure and heart rate in conscious mice; type: in vivo
Method: We also tested the effect of renalase on blood pressure and heart rate in conscious mice. Recombinant renalase was prepared using the method described in Example 3 of PCT/US05/009248, which is specifically and completely incorporated herein by reference. As explained in more detail therein, the recombinant protein made in E. coli as used in the examples herein is refolded before administration. Thus, the recombinant renalase protein as used herein is in the active form (i.e., it is active renalase as defined above).
The recombinant protein was given by tail vein injection (100 μg) or retroorbital injection (1 mg) and ambulatory blood pressure and heart rates were measured continuously for 24 hours.

[3] = infusion of recombinant renalase into rats; type: in vivo
[4] = amine oxidase activity in vitro of renalase isolated from blood and urine; type: biochemical, human; details: basal conditions
Source text: We have tested renalase isolated from blood and urine.

Molecule | myocardial (left ventricular) function ([1]; infusion from 10 minutes before 15 min global ischemia until 2 hours after reperfusion, versus control protein glutathione synthase) | decrease of myocardial necrosis ([1]; ischemia-reperfusion, n=3, p<0.001) | mean blood pressure ([2]; 100 μg by tail injection) | minute-to-minute variability in blood pressure ([2]; 100 μg by tail injection, conscious mice) | heart rate ([2]; 100 μg by tail injection, for several hours) | blood pressure ([2]; 1 mg by retroorbital injection) | heart rate ([2]; 1 mg by retroorbital injection) | reversibility of the blood pressure effect ([2]; continuous IV infusion, after stopping) | blood pressure ([2]; continuous infusion by tail vein, 20 μg/minute, during the period of infusion) | blood pressure [3] | heart rate [3] | amine oxidase activity in vitro [4]
B1 | preserved myocardial function significantly better; also recorded: preserves left ventrical (LV) function | 54% | remained unchanged | decreased | significantly increased | significant and long-lasting fall | significant and long-lasting fall | reversible | reduction in blood pressure | reduction | lower | 
B2 |  |  |  |  |  |  |  |  |  |  |  | no significant amine oxidase activity
B3 |  |  |  |  |  |  |  |  |  |  |  | metabolizes catecholamines
